# B1: R1MAb1 (antibody)
# chain 1: EVQLVESGGGLVQPGGSLRLSCAASGFTFTSTWISWVPGKGLEWVGEIDPYDGDTYYADSVKGRFTISADTSKNLQMNSLRAEDTAVYYCASSGYGGSDYAMDYWGQ
# chain 2: DIQMTQSPSSLSASVGDRVTITCRASQDVSTAVAWYQQKPGKAPKLLIYSASFLYSGVPSRFSGSGSGTDFTLTISSLQPEDFATYYCQQSYTTPPTFGQGTKVEIKR
# B2: R1MAb2 (antibody)
# chain 1: EVQLVESGGGLVQPGGSLRLSCAASGFTFSNNYIHWVPGKGLEWVADIYPNDGDTDYADSVKGRFTISADTSKNLQMNSLRAEDTAVYYCAREHFDAWVHYYVMDYWGQ
# chain 2: B1 chain 2
# Biological target: T1, human FGFR1b extracellular domain
# T1 chain: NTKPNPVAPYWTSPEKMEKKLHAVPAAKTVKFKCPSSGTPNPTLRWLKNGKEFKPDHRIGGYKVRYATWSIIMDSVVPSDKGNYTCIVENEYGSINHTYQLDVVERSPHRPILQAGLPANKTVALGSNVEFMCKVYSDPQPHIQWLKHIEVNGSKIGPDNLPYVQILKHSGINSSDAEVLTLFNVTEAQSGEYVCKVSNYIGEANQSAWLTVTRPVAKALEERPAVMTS
# Test: SPR
row,Kd [nM],Binder
1,0.59,B1
2,0.44,B2

# Source: patent US20200140557A1 (published 2020)
